PMC11161584

Biological target: PTRAMP-CSS heterodimer (Plasmodium thrombospondin-related apical merozoite protein with small cystei (P. falciparum (3D7 clone)))
Assay: SPR

RH5-interacting protein (RIPR), full-length soluble recombinant protein (from UniProt O97302 20-1086) (natural protein)
Kd: 4.5 µM
